From patent publication US20250101098A1

Tests used:
Experiment in all cases: flow cytometry, HEK 293 cells overexpressing the target
[1] = molecular target: cynomolgus monkey nectin-4 protein expressed on the surface of HEK 293 cells (cynomolgus monkey)
[2] = molecular target: human nectin-4 protein expressed on the surface of cells (human) (UniProt Q96NY8)
[3] = molecular target: mouse nectin-4 protein expressed on the surface of HEK 293 cells (mouse) (UniProt Q8R007)
[4] = molecular target: rat nectin-4 protein expressed on the surface of HEK 293 cells (rat) (UniProt D3ZET1)

Chain of mouse nectin-4 protein expressed on the surface of HEK 293 cells (mouse) (Q8R007 31-508): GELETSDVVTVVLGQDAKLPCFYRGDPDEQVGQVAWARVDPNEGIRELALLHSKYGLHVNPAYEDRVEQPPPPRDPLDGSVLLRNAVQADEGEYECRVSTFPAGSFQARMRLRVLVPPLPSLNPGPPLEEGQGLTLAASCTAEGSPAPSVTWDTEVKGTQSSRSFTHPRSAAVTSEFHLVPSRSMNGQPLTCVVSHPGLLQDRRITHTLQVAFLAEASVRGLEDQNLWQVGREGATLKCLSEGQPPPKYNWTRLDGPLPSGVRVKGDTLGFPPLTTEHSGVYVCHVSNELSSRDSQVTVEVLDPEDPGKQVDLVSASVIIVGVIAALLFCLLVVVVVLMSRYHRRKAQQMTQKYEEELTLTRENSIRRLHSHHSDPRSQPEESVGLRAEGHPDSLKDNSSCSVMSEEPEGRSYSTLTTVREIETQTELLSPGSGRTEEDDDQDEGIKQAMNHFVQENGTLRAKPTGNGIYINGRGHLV
Chain of human nectin-4 protein expressed on the surface of cells (human) (Q96NY8 32-510 limits assumed): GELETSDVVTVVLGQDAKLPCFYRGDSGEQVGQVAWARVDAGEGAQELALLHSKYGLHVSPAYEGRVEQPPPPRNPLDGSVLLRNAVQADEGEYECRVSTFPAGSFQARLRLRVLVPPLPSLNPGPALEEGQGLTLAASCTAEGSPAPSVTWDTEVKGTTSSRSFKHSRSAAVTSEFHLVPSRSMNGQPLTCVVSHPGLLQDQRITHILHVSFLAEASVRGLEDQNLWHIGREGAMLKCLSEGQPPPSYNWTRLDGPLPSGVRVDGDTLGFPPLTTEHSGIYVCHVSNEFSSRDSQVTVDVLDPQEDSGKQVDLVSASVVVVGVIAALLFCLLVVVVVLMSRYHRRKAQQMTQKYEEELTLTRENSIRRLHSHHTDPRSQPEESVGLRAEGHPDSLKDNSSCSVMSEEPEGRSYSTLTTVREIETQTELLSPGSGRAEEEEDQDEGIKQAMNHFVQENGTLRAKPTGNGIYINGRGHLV

Anti-FITC Isotype Control (antibody)
Flow data [1]: 189
Flow data [2]: 132
Flow data [3]: 163
Flow data [4]: 196
